Assay results: a protein production outcome set (Wang et al. 2014)

Assay: label from the status in PepcDB records
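Further: failed if final PepcDB status was selected cloned or expressed and not failed if soluble or beyond.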

Sequence: MMELDLPATIKRDMKFRYLLIIVPLLFPAHIFGQELPDLGDVSQASVTPHQERQIGIQIMREIRADSSYLDDPEIADYLTRLGNRLIAASGQTNPDNPFEFFAINDSSINAFALPGAFVGFHSGLITAAQNESELAGVMAHEIAHVTQKHLARMISGTSYLGLLGSIAALAIAILASRSNPNAGQAVLATAQASAIQSQLNFTRKHEKEADRVGFNMLIKAGFDPHGMSSFFERMQHASRYYENGMPSYLMTHPVTHERIADIQNRTQELGYRQVPDSLEFHLVRAKIRASRGNPASVINEFKARLQDKRYINEIAEQYGLIQALLRARQFKQADEELNTLYRTIQSDSSAQSLKNHRLGKSIQVDGDYLQSAAMIETLAARVKFASGQTDDAFRLYQSALQSFPHYRALVYGYADALLQHKDAQAALDFINGQSQFIHDDIRLYRLTAQCHAALGNALLQHQAEAEALIREGNLRAAIEQLQIALRHKHDNFYQLSSVEARLRQIKEFVAAEKEKK
- protein production: failed

Sequence: STMTVIKDYYALKENEICVSQSEVVQVLAVNQQNMCLVYQPASDHSPAAKGWVPGSILAPF
- protein production: not failed

Sequence: EQLPVLQTVPFAGSAEPVSLTRESVERSVGEANMQEQRKRVHAMLRDYELQLRINSDASQQDAHLTPDSE
- protein production: not failed

Sequence: MMIVYKGEKMQFIRVNTLKINPEVLKKRLENKGVVLEKTFLDYAFEVKKSPFSIGSTPEYLFGYYMPQSISSMIPPIVLNPREDDFILDMCAAPGGKTTHLAQLMKNKGTIVAVEISKTRTKALKSNINRMGVLNTIIINADMRKYKDYLLKNEIFFDKILLDAPCSGNIIKDKNRNVSEEDIKYCSLRQKELIDIGIDLLKKDGELVYSTCSMEVEENEEVIKYILQKRNDVELIIIKANEFKGINIKEGYIKGTLRVFPPNEPFFIAKLRKI
- protein production: not failed

Sequence: TGELEVVQQAVKEMNDPSQPNEEGITALHNAICGANYSIVDFLITAGANVNSPDSHGWTPLHCAASCNDTVICMALVQHGAAIFATTLSDGATAFEKCDPYREGYADCATYLADVEQSMGLMNSGAVYALWDYSAEFGDELSFREGESVTVLRRDGPEETDWWWAALHGQEGYVPRNYFGLFPRVKPQRSKV
- protein production: failed

Sequence: MTKANWTLSDARDTYAIEHWSDGYFNIAPEGEVVVCPQRGSVEGGVSIAAIARGVRAEGLSLPVLMRFPHILHDRVRLLTSAFGKARAAYHYGAGYTPVYPIKVNQQRNVIENILRAGGVGLEAGSKSELLAILALAESGTIICNGYKDRAYIRLALIGSRLGLRVFIVVEKLSELELVVSESEALGIAPQLGVRIRLSSISAGKWQNSGGEKSKFGLHAGEILKFLKRLERAGGLGWVRLMHFHMGSQVANINDVKTALREASRYYAELRRLGAPVDHVDVGGGLGIDYEGTHSVSDCSINYSVDEYAHSIVRAFSELCAEQGLPQPDLITEAGRAMSAHHAVLVTNVVDIEAATYDASPVSASVAQPLKDLEDLLRRVDSESVLGIYHDAEFDLAETRTMYVQGKIGLDQLAEAERLHATLCREVQQRLDIRLRAHRAVLDELNERLADKLFCNFSVFQSIPDAWAIDQIFPVMPLQRLGEEPTRRAVIQDMTCDSDGRINAYIDRQSIENTLRMHAPAPGEPYLIGFFLVGAYQEILGDMHNLFGDTHSVDVELDGAGGYTFTHTRRGDGADDLLRYVHIDPDELERSYRKKLIEADIPMHQRKQYESELIAGLSNYTYLEELEHHHHHH
- protein production: not failed

Sequence: MENGEAKQSVPLLTPYKMGRFNLSHRVVLAPLTRQRSYGNVPQPHAAIYYSQRTTPGGFLITEATGVSDTAQGYQDTPGIWTKEHVEAWKPIVDAVHAKGGIFFCQIWHVGRVSNSGFQPNGKAPISCSDKPLMPQIRSNGIDEALFTPPRRLGIEEIPGIVNDFRLAARNAMEAGFDGVEIHGANGYLIDQFMKDTVNDRTDEYGGSLQNRCKFPLEIVDAVAKEIGPDRVGIRLSPFADYMESGDTNPGALGLYMAESLNKYGILYCHVIEARMKTMGEVHACPHTLMPMRKAFKGTFISAGGFTREDGNEAVSKGRTDLVAYGRWFLANPDLPKRFQVDAPLNKYDRPTFYTSDPVVGYTDYPFLESTA
- protein production: not failed

Sequence: MAKRGREAKSAERTRQLAESEARLRLMADAAPFPLAMNRLAGGELIYANARAEELFGARLRPDRPLRVQDFYAEPAEREKVARALLEGRAVRDREVRLRDAGGRPFWALVSCELVQSGETWYVINGVNDISERKRLEQSLQDANAALRSHLREIELLQQGLREQALRDPLTGLFNRRHLDDILPRVLAHMLALHREVAVLMVDADHFKRINDTYGHRCGDAVLTALGACLSDHFRSGDIVCRYGGEEFFVLLPGATLEAAYAKAEGLRRAVGERPMEALGHSLAVTLSIGLALCPLHGSDAESVVRAADEALYQAKRQGRDRVCVAARLQSLLS
- protein production: failed

Sequence: MPRGLILATPQLPPDGTPFSARYDDVYHSTEGGLAQAHHVFLGGNGLPGGWQGKRSFTIVETGFGQGLNFLATWAAWRDDPQRCGRLDFVSVEKHPFDRAGLALVHAQEGALASLAEALRQAWPVPVPGVHRLVFDAGRVTLTLMLGDAETLLPQLSCAADAFYLDGFSPAKNPDLWQPGVFKQLARIARGGATLATYTAAGAVRHGLREAGFEVRKAPGFGRKRDMTVAAFPTHWRTRRGPAEAPVWPERHAIVLGAGLAGCSVAERLAARGWRITLIDEHEAPAGGASAHRAAAMHPHVSIDDSVLSRLSRAGNLLARRHWEALDRAGFATGFHPTGVLQLAEHADDAAEQQRIVQALGFPADFIAWLDAARAADRVGAGVPQGGWWFAQAGWVAPPDICRAALAAAGEAVELRWRTRIESLLRHDAGWRACDAQGNVIAHAPVVVLANSLDAVRLAPLASAALKPVRGQLTDVPVAALEDGVPWPRAVVCGDGYLLPRERGAPTVRVGSSFQPGETDPDARTADHAANLRRLAGLQPAHAAALARVDPARLLGYVGVRCVSANRLPLIGAVADEAAIMAPGFRLRGPHAALPRVPGLYAALAYGSRGLTWSVLGAELLAAQIDGGPLPLESELAAALDPGRFLMRALRHGKHAA
- protein production: failed

Sequence: MAQYQALYRQWRPRTFAEVVGQEHITRTLRNALRTGRLVHAYLFCGPRGTGKTSTAKILARAINCLAPREGEPCNECANCRRILAGNSLDVLEMDAASNRGIDEIRNLIEKIPLGPVEGRYKVYIIDEVHMLTQEAFNALLKTLEEPPAHAVFILATTEPRKVLPTILSRCQRFDFHPLTVQAIAGRLQEVAAANGVEIEPGALSLLSRKAAGGLRDALSLLDQILASGTRGPVTAGQVAVTLGTARLDTLLALTDALATGDGAGVLNLVDKALASGIEPRRLLEDLLDHTRNLLLLKVDPGAGSLTGLLPEEVEQVAAQARQFDHHRLLDLMERLQQGGAALRRSNQPRVILEMTLAGFLVAPGPSLEGLARRVAELEARLAALEGSAPSRTREKVATRNQGEGGRPPVAPGSRADAGGQERGNSGPLEAPGAGSPAGRARVINRSREFPQAAGRDRAGLAGPETATGLEPGSPASPGLELAVVQEHWPEVLAAARRESIQLQAFLREGEPVAIDGDTLTLAVKADFHRGMLEQPGNRQKVEKALAAVFGRPLKVVITSGKPSPPGDTGDTLTRLVNFFGADKVEIKD
- protein production: failed

Sequence: MSLDSRKPGHRPVTMRDVAKAAGVSRMTVSRALKKDSPISSETRERILKVVKDMNYVPDQVAGSLTTKRSGFVGLLLPSLNNLHFAQTAQSLTDVLEQGGLQLLLGYTAYSPEREEQLVETMLRRRPEAMVLSYDGHTEQTIRLLQRASIPIVEIWEKPAHPIGHTVGFSNERAAYDMTNALLARGFRKIVFLGEKDDDWTRGAARRAGFKRAMREAGLNPDQEIRLGAPPLSIEDGVAAAELILQEYPDTDCIFCVSDMPAFGLLSRLKSIGVAVPEQVSVVGFGNFEVSRFASPEISTVRVDPIAIGRETGSLILRLLDPKQRSPQTAQHITLPPVLEFRPSLKNEGHHHHHH
- protein production: not failed

Sequence: DDNERLSKVEKARQLREQVNDLFSRKFGEAIGMGFPVKVPYRKITINPGCVVVDGMPPGVSFKAPSYLEISSMRRILDSAEFIKFTVIRPFPGLVINNQLV
- protein production: not failed

Sequence: MKHDKKNSKIIPFPNVKERLVHKGMGALKEKNYHEALRLFSEAKRYNDEESDIYLGMAICLLEIGELEEAKGICEKMLKEGHGHYFTVLQVYMTILIQLRQYEKVKETIEAVLEENKLPPESAEQFYKLLDFSRKMTEDPGPEDITEDLPETEEVDQERLLNDTEEQVKLLHGLKDRNLTSYIGLLKTILQNPSAHPVVKTMILQLLAESDHEKPTLVAKFGDSMTINPTETVKPDDMPILKHVLSVLDDTLGNENPTLYQAVEELWRRHIYVLYPFQPKYSNRELWAAALHKVGYEMHGIDIDKEELHILYEFNDRQLDEACALIKDIEEISYL
- protein production: failed

Sequence: MYNILLIFIAFLLVLLNAFFVSAEFGMVKLRATRIQAIKENYGLRGRILEQVHQNLDAYLSACQLGITLASLGLGWIGEPAFAELLGPLFVALGISSVHIVTISSFFIAFFLISFLHIVIGELMPKSIAIRQSELISIWTAVPLYWFYWIMYPAIWLLNTCSNFFLKLSGMDIKNEYEGFYSSEELKLILSGQHLQSELKEDEREILEHTLDLAELNVTEVMRPEDEMIIIDINEPFETIKDKILKYRYSRYPVYDSGTKEMIGVIHVKDLFADLLLQKNINTLKPYVRPVLKVSHKLPAMDLLRKFRAGMPHFALVYKHKSSLLGFVTLDNLLHILIGRIKDEFHKTHEDWVKNSDGTITTKGDCSLYSLERALDCDITLSPDEEELNTLYGLIITRHGKLPNEGEIIQFVEFDALIEKVQDSFITKIKVFPKIKN
- protein production: failed

Sequence: MSTSPADTARYNRFVADLFGMMAYGELSAFERFSADARYSPTLHDRAVLGRIAVVEFRHYELVSARLEAMGIDAEDAMLPFQAAVDYFHSRTRPADWYESLMKAYVIDTVSADFYRAISRYVDAGTRDVIEQIQASDETTEVLRERLRSALADDPRLASRLALWGRRLLGEALTQAQRVSYEHAFLGSLIGGEDSAAAKELVSGLIAGLAEKHSKRMTQLGLTG
- protein production: not failed

Sequence: MNKKSLLAAVLFAAVMPVSFAQNANVKGAESLSGGSKPNFPEARTLIGEAMKNPETMNDAKTWFVAGQVEERLFTSENLKQTVNQEPDRAMMNDALLRILPFYLKADQLDNMPDQKGKVKPKFTKKIMESLKGNHLYYINAGGYYMEKKDYKKALEAFDQFMQIKELPMFAAVPEISAQDSNSMMVGFFSAVCAYQANDLDRTLEICNKIKDVPYRQNDVYQLIATVYQDKKDTEGYIRMLEEGVQKFPKEAYYLLNLINKYIETGRTEEAISSLERAIADDPQNVQLYDVMAKLYENTQDYDKAEEWLKKGLALDPDNASVCYDLGRVYYNRAADLKGADQVNAETEAKAKEYLQKALPLLEKAYSINPDESWYVLRNVYYNLKMNDKYKELTERHEGK
- protein production: failed

Sequence: MAKNTLSFVCQNCGAAYNRWQGKCESCGEWNTLAEEDTSGSVPVSIRSKRKGRTFALESLAGKSPDAPRLSSGMTELDRVTGGGFVRGSVLLVGGDPGIGKSTLLTQATSLMARAGHRIVYISGEEAIAQVRLRAERLGLSDAPVQLAAETSVEDIVSTLSEGAVPRLIVIDSIQTMWTDTVESAPGTVTQVRASAQALIRFAKKTGAAIILVGHVTKDGQIAGPRVVEHMVDAVMSFEGEGSQQFRILRAVKNRFGPTDEIGVFEMTGLGLREVTNPSELFLSERDLGTPGTAVFAGIEGTRPVLVELQALVAPTSLGTPRRAVVGWDPSRLSMVLAVLEAHCGVKLSGHDVYLNVAGGLRIHEPAADLAAAAALVSSLVNAQLPTDAVYFGEISLSGVVRPVAQTPARLKEAAKLGFQRAVLPESARGEAGGDAGLSLNAVNSLTTLVAEIAARGSRRGESGGSAEKNATPARFRRGEGLEHHHHHH
- protein production: failed

Sequence: MFPILLLAFIFVPIIEIGLFIQVGGFLGLWPTIALVLITAFVGASLVRSQGIQTLMSVQGRLEQGEIPAQQIFEGVMLAVAGVLLLTPGFMTDALGMVVLLPAPRAAIAKYLMSKMVVKTMHGGGFQGGFSNQGPFEQDPFHRDPFDSRSDNGNTFEGEYERKDDDDRNKLN
- protein production: failed
